According to patent US20130295106A1 (ONCOMED PHARMACEUTICALS, published 2013):

Key:
Test in all cases: flow cytometry, HEK293 cells transiently co-transfected with FZD expression vector and GFP
[1] = biological target: T1, human FZD10 expressed on transfected HEK293 cells (human, UniProt Q9ULW2 21-581)
T1 sequence: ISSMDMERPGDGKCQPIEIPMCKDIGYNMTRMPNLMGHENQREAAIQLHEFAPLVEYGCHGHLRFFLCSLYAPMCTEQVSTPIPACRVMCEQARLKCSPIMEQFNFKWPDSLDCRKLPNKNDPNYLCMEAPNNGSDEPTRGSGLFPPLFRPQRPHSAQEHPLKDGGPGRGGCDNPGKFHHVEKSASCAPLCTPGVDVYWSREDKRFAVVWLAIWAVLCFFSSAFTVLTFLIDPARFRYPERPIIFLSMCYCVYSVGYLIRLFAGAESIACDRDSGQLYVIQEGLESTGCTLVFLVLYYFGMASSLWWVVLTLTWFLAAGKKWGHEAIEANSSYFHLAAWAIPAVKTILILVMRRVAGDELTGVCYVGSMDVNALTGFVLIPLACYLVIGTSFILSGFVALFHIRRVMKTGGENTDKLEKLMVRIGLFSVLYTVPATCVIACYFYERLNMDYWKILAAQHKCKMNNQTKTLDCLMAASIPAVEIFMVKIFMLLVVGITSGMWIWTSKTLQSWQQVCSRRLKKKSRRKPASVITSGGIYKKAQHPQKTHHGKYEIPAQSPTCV
Experimental: (§1) To measure antibody binding to FZD by flow cytometry HEK293 cells were co-transfected with FZD expression vectors and the transfection marker GFP. Twenty-four to forty-eight hours post-transfection, cells were collected in suspension and incubated on ice with anti-FZD antibodies (10 μg/ml unless otherwise indicated) or control IgG to detect background antibody binding. The cells were washed and primary antibodies detected with Fc domain-specific secondary antibodies conjugated to a fluorescent chromophore (e.g. phycoerythrin conjugated anti-human IgG). Labeled cells were then analyzed by flow cytometry to identify anti-FZD antibodies that specifically recognize cell surface expression of FZD protein. Monoclonal antibodies 18R5 and 18R8 recognized FZD on transfected cells. As shown in FIG. 1 and FIG. 2, both 18R8 and 18R5 bind to multiple FZD including FZD1, FZD2, FZD5, FZD7, and FZD8. To examine the relative ability of 18R8 and 18R5 to bind to each FZD protein, titration analysis was conducted wherein the amount of antibody in the binding reaction was varied (FIG. 2).

[2] = biological target: T2, human FZD4 expressed on transfected HEK293 cells (human, UniProt Q9ULV1 37-537)
T2 sequence: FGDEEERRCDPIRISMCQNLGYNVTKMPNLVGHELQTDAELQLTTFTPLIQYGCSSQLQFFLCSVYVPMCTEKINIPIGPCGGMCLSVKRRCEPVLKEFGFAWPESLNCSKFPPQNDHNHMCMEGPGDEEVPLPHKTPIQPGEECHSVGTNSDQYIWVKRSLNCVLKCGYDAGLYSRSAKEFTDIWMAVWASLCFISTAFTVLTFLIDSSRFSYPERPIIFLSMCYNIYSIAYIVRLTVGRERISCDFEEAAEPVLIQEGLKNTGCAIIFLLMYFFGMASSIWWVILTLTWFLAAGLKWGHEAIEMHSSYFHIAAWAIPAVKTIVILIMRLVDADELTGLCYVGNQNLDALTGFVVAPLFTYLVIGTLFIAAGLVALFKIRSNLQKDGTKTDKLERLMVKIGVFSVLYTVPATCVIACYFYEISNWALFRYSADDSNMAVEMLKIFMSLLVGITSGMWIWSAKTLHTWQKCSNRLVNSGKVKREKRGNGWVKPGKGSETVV
Experimental: as §1

[3] = biological target: T3, human FZD3 expressed on transfected HEK293 cells (human, UniProt Q9NPG1 23-666)
T3 sequence: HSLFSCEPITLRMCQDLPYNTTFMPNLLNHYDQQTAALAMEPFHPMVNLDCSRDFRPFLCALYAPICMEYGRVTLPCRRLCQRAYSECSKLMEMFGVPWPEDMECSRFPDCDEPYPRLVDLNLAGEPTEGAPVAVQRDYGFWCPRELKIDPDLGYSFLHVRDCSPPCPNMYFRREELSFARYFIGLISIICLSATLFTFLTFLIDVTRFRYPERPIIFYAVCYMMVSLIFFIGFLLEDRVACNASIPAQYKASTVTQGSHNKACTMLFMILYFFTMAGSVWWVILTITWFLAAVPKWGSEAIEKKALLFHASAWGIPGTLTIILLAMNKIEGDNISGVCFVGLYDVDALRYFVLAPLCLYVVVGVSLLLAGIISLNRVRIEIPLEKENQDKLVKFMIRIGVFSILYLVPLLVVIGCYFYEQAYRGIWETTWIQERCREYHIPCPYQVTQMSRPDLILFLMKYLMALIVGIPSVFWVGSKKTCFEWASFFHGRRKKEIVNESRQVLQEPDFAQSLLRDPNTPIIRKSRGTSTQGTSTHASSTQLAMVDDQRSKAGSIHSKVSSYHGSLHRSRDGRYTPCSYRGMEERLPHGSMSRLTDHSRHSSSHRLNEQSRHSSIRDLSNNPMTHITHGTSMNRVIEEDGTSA
Experimental: as §1

Measured: binding result

B1: 18R8 IgG antibody (human IgG2, lambda) (antibody, V domains shown)
VH: EVQLVESGGGLVQPGGSLRLSCAASGFTFSHYTLSWVRQAPGKGLEWVSVISGDGSYTYYADSVKGRFTISSDNSKNTLYLQMNSLRAEDTAVYYCARNFIKYVFANWGQGTLVTVSS
VL: DIELTQPPSVSVAPGQTARISCSGDKLGKKYASWYQQKPGQAPVLVIYEKDNRPSGIPERFSGSNSGNTATLTISGTQAEDEADYYCSSFAGNSLEVFGGGTKLTVLG
notes: Expressed in CHO cells, protein A purified; also called 18R8 IgG2 antibody; anti-FZD antibody 18R8
no binding (tested: 10 ug/ml): [1] | [2] | [3]
